Measured values published in patent US20090048324.
Positions count from the first letter of the chain named. Names may count otherwise.

T1: wild type human porphobilinogen synthase (PBGS), parent construct N59/C162A
T1 chain: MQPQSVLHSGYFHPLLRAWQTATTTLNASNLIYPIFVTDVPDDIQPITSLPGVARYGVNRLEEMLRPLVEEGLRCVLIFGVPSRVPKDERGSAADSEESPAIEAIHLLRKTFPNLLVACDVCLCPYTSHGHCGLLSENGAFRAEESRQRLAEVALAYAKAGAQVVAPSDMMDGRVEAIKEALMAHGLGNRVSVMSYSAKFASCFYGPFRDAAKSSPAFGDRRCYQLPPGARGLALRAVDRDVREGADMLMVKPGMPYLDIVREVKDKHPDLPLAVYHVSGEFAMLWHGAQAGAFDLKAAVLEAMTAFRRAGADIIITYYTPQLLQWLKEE

B1: human PBGS variant F12L (protein)
chain: T1 chain with F12L
B2: pea (Pisum sativum) porphobilinogen synthase (protein)
chain: SLPIQRRPRRNRRSPALRSAFQETTLSPANFVYPLFIHEGEEDTPIGAMPGCYRLGWRHGLLEEVAKARDVGVNSVVLFPKIPDALKTPTGDEAYNEDGLVPRSIRLLKDKYPDLIIYTDVALDPYSSDGHDGIVREDGVIMNDETVHQLCKQAVAQARAGADVVSPSDMMDGRVGAMRVALDAEGFQHVSIMSYTAKYASSFYGPFREALDSNPRFGDKKTYQMNPANYREALTEMREDESEGADILLVKPGLPYLDIIRLLRDNSPLPIAAYQVSGEYSMIKAGGALKMIDEEKVMMESLLCLRRAGADIILTYFALQAARTLCGEKR

How the values were obtained:
[1] = molecular target: T1, wild type human porphobilinogen …

| Protein | specific activity over time after addition of ALA (filled triangles, Pool I) [1] | specific activity over time after addition of ALA (filled triangles, Pool II) [1] | K(0.5) of the protein concentration dependent specific activity (P30124) | K(0.5) of the protein concentration dependent specific activity in the presence of 5 µM morphlock-1 (P30124) | protein concentration giving half maximal specific activity (P30124) | protein concentration giving half maximal specific activity after 30 minutes with 30 µM rosmarinic acid (P30124) | specific activity as a function of pea PBGS concentration, DMSO control (filled circles) (P30124) | specific activity as a function of pea PBGS concentration, with morphlock-1 (open circles) (P30124) | specific activity as a function of pea PBGS subunit concentration (P30124) |
| --- | --- | --- | --- | --- | --- | --- | --- | --- | --- |
| B1 | rises from about 1 at 0 min (fit) and about 2.5 at 15 min to a plateau of about 7.5 µmole h-1 mg-1 by 200-270 min | rises from about 18.3 at about 2 min to a plateau of about 22.2-22.4 µmole h-1 mg-1 from 30-45 min up to 150 min |  |  |  |  |  |  |  |
| B2 |  |  | K(0.5) of 0.064 µM PBGS | more than doubles the K(0.5) to 0.134 µM pea PBGS | half maximal activity at 3.5 µg/ml PBGS | half maximal activity at 13.5 µg/ml PBGS | rises from near 10 at about 0.008 µM to about 250 at about 0.8 µM; fitted line levels at about 275 µmol h-1 mg-1 toward 10 µM (log axis); the half-maximal K(0.5) is printed in the text | curve shifted to the right of the DMSO curve: near 0 at about 0.008 µM, about 240 at about 0.8 µM; fitted line reaches about 290 µmol h-1 mg-1 at 10 µM (log axis); the half-maximal K(0.5) is printed in the text | rises from about 5 at 0.001 µM to a plateau of about 220 at 0.7-1 µM on a log axis |
